Results: article PMC11066147
Where “and” joins values, the source holds several entries; their conditions need not be identical. Identical values can stand only once.

Columns and labels:
[1] = biological target: PfHsp70-1LS (linker switch mutant of PfHsp70-1 carrying the linker of PfHsp70-z) (Plasmodium falciparum) (UniProt Q8IB24); experiment: SPR
[2] = biological target: PfHsp70-zLS (linker switch mutant of PfHsp70-z carrying the linker of canonical Hsp70) (Plasmodium falciparum) (UniProt Q8IC01); experiment: SPR

B1: PfHop (natural protein)
chain: MVNKEEAQRLKELGNKCFQEGKYEEAVKYFSDAITNDPLDHVLYSNLSGAFASLGRFYEALESANKCISIKKDWPKGYIRKGCAEHGLRQLSNAEKTYLEGLKIDPNNKSLQDALSKVRNENMLENAQLIAHLNNIIENDPQLKSYKEENSNYPHELLNTIKSINSNPMNIRIILSTCHPKISEGVEKFFGFKFTGEGNDAEERQRQQREEEERRKKKEEEERKKKEEEEMKKQNRTPEQIQGDEHKLKGNEFYKQKKFDEALKEYEEAIQINPNDIMYHYNKAAVHIEMKNYDKAVETCLYAIENRYNFKAEFIQVAKLYNRLAISYINMKKYDLAIEAYRKSLVEDNNRATRNALKELERRKEKEEKEAYIDPDKAEEHKNKGNEYFKNNDFPNAKKEYDEAIRRNPNDAKLYSNRAAALTKLIEYPSALEDVMKAIELDPTFVKAYSRKGNLHFFMKDYYKALQAYNKGLELDPNNKECLEGYQRCAFKIDEMSKSEKVDEEQFKKSMADPEIQQIISDPQFQIILQKLNENPNSISEYIKDPKIFNGLQKLIAAGILKVR
For B1, the Kd [1] was 27.7 nM and 10 nM and 37.6 nM.

B2: Plasmodium falciparum Hsp110 (PfHsp70-z, PF3D7_0708800) (natural protein)
chain: MSVLGIDIGNDNSVVATINKGAINVVRNDISERLTPTLVGFTEKERLIGDSALSKLKSNYKNTCRNIKNLIGKIGTDVKDDIEIHEAYGDLIPCEYNYLGYEVEYKNEKVVFSAVRVLSALLSHLIKMAEKYIGKECKEIVLSYPPTFTNCQKECLLAATKIINANVLRIISDNTAVALDYGMYRMKEFKEDNGSLLVFVNIGYANTCVCVARFFSNKCEILCDIADSNLGGRNLDNELIKYITNIFVNNYKMNPLYKNNTPELCPMGTGRLNKFLVTSTASDQQNGINNKVRIKLQEVAIKTKKVLSANNEASIHVECLYEDLDCQGSINRETFEELCSNFFLTKLKHLLDTALCISKVNIQDIHSIEVLGGSTRVPFIQNFLQQYFQKPLSKTLIADESIARGCVLSAAMVSKHYKVKEYECVEKVTHPINVEWHNINDASKSNVEKLYTRDSLKKKVKKIVIPEKGHIKLTAYYENTPDLPSNCIKELGSCIVKINEKNDKIVESHVMTTFSNYDTFTFLGAQTVTKSVIKSKDEKKKADDKTEDKGEKKDAKDQEQNDDKDQTNDNNMNEKDTNDKKEKNNETNSPNKTELKKGEEGKVQTCYTTIPIETLLAQGSYSSKDIFNFSEQEINMQHSDILEGERLKHLNELETIIYESRSRLNGIYKNFVMDDERDRILLSLDDYENWLYDNIEENKNMFIKKKEEIRDLIKNIVQKFDVYNSKQQNLGNIINHLNNIITQCSNKPSDESQNIINRTTKFLNNINSLQEQEKNKPLYEPPVYTLNDIEAEFNEVTQLAQKFFSKLEVEELAKQKAKQEKEKEKEKEKEKEKEKEKNEETNLDANEEQNNEAKNNEEKENSTKNENSANPEE
In the case of B2, the Kd [2] is reported as 3.17 nM and 2.79 nM and 1.84 nM, the koff [2] is reported as 4.15e-05 s⁻¹ and 4.36e-05 s⁻¹ and 5.32e-05 s⁻¹ and the kon [2] is reported as 13100 M⁻¹ s⁻¹ and 23700 M⁻¹ s⁻¹ and 19100 M⁻¹ s⁻¹.
